Measurements: patent publication US20260242735A1 (UNIVERSIT T BASEL, published 2026)

What was measured:
Test in all cases: flow cytometry on HEK293-T, alanine scan
human CD33 N100A = human CD33 N100A (human, UniProt P20138 18-364)
Procedure: (§1) An alanine scan on human CD33 was performed to the determine the residues on CD33 that are involved in binding to the antibodies investigated. […] Briefly, a mutation library of CD33 was created by high-throughput, site-directed mutagenesis. Each residue was individually mutated to alanine, with alanine codons mutated to serine. The mutant library was arrayed in 384-well microplates and transiently transfected into HEK293-T. Following transfection, cells were incubated with the indicated antibodies (IgG or Fab) at concentrations pre-determined using an independent immunofluorescence titration curve on wild type CD33. […] Binding of each antibody to each mutant clone was determined in duplicates. For each point, background fluorescence was subtracted from the raw data, which were then normalized to antibody reactivity with wild type CD33.
(§2) Critical residues for antibody binding (outlined in dark grey) were residues whose mutations led to a binding of the test Abs of less than 20%. Additional secondary residues (outlined in light grey) were identified that led to a binding of the test Abs of between 20 and 40% as compared to the wild type CD33.

human CD33 P145A = human CD33 P145A (human, UniProt P20138 18-364)
Procedure: as §1, §2

human CD33 K146A = human CD33 K146A (human, UniProt P20138 18-364)
Procedure: as §1, §2

human CD33 G94A = human CD33 G94A (human, UniProt P20138 18-364)
Procedure: as §1, §2

human CD33 G156A = human CD33 G156A (human, UniProt P20138 18-364)
Procedure: as §1, §2

human CD33 M120A = human CD33 M120A (human, UniProt P20138 18-364)
Procedure: as §1, §2

human CD33 E154A = human CD33 E154A (human, UniProt P20138 18-364)
Procedure: as §1, §2

human CD33 L153A = human CD33 L153A (human, UniProt P20138 18-364)
Procedure: as §1, §2

human CD33 S131A = human CD33 S131A (human, UniProt P20138 18-364)
Procedure: as §1, §2

human CD33 R98A = human CD33 R98A (human, UniProt P20138 18-364)
Procedure: as §1, §2

human CD33 P132A = human CD33 P132A (human, UniProt P20138 18-364)
Procedure: as §1, §2

human CD33 C101A = human CD33 C101A (human, UniProt P20138 18-364)
human CD33 C101A, sequence (P20138 18-364 C101A limits assumed): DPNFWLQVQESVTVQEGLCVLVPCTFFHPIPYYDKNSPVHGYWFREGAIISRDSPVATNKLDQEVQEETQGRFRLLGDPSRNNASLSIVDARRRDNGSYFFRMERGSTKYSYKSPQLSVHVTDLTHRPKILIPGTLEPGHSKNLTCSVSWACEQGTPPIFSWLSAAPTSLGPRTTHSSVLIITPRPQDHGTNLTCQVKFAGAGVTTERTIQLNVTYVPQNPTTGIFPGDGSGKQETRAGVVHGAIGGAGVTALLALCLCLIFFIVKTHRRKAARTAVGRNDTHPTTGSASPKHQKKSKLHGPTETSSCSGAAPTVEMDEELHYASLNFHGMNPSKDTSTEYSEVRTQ
Procedure: as §1, §2

human CD33 K146A, sequence (P20138 18-364 K146A limits assumed): as the sequence (P20138 18-364 C101A limits assumed) above, with A84C, K129A counted along it
human CD33 M120A, sequence (P20138 18-364 M120A limits assumed): as the sequence (P20138 18-364 C101A limits assumed) above, with A84C, M103A counted along it
human CD33 E154A, sequence (P20138 18-364 E154A limits assumed): as the sequence (P20138 18-364 C101A limits assumed) above, with A84C, E137A counted along it
human CD33 R98A, sequence (P20138 18-364 R98A limits assumed): as the sequence (P20138 18-364 C101A limits assumed) above, with R81A, A84C counted along it
human CD33 P145A, sequence (P20138 18-364 P145A limits assumed): as the sequence (P20138 18-364 C101A limits assumed) above, with A84C, P128A counted along it
human CD33 G156A, sequence (P20138 18-364 G156A limits assumed): as the sequence (P20138 18-364 C101A limits assumed) above, with A84C, G139A counted along it
human CD33 P132A, sequence (P20138 18-364 P132A limits assumed): as the sequence (P20138 18-364 C101A limits assumed) above, with A84C, P115A counted along it
human CD33 L153A, sequence (P20138 18-364 L153A limits assumed): as the sequence (P20138 18-364 C101A limits assumed) above, with A84C, L136A counted along it
human CD33 N100A, sequence (P20138 18-364 N100A limits assumed): as the sequence (P20138 18-364 C101A limits assumed) above, with N83A, A84C counted along it
human CD33 G94A, sequence (P20138 18-364 G94A limits assumed): as the sequence (P20138 18-364 C101A limits assumed) above, with G77A, A84C counted along it
human CD33 S131A, sequence (P20138 18-364 S131A limits assumed): as the sequence (P20138 18-364 C101A limits assumed) above, with A84C, S114A counted along it

Binder | Mean % WT Binding (human CD33 N100A) [% WT binding] | Mean % WT Binding (human CD33 P145A) [% WT binding] | Mean % WT Binding (human CD33 K146A) [% WT binding] | Mean % WT Binding (human CD33 G94A) [% WT binding] | Mean % WT Binding (human CD33 G156A) [% WT binding] | Mean % WT Binding (human CD33 M120A) [% WT binding] | Mean % WT Binding (human CD33 E154A) [% WT binding] | Mean % WT Binding (human CD33 L153A) [% WT binding] | Mean % WT Binding (human CD33 S131A) [% WT binding] | Mean % WT Binding (human CD33 R98A) [% WT binding] | Mean % WT Binding (human CD33 P132A) [% WT binding] | Mean % WT Binding (human CD33 C101A) [% WT binding]
Refmab #2 (antibody, V domains shown, The alanine scan used IgG or Fab) VH: QVQLVQSGAEVKKPGSSVKVSCKASGGTFSDYAISWVRQAPGQGLEWMGRIIPILGVADYAQKFQGRVTITADKSTRTAYMELSSLRSEDTAVYYCARNWADAFDIWGQGTMVTVSS VL: DIQLTQSPSSLSASVGDRVTITCRASQGISSVLAWYQQKPGKAPKLLIYDASSLESGVPSRFSGSGSGTDFTLTISSLQPEDFATYYCQQFDSSITFGQGTKLEIK | 97 | 105 | 115 | 108 | 99.4 | 70.7 | 112 | 121 | 123 | 122 | 102 | 0.6
Refmab #4 (antibody, V domains shown, The alanine scan used IgG or Fab) VH: QVQLVQSGAEVKKPGESVKVSCKASGYTFTNYGMNWVKQAPGQGLEWMGWINTYTGEPTYADKFQGRVTMTTDTSTSTAYMEIRNLGGDDTAVYYCARWSWSDGYYVYFDYWGQGTSVTVSS VL: DIVMTQSPDSLTVSLGERTTINCKSSQSVLDSSTNKNSLAWYQQKPGQPPKLLLSWASTRESGIPDRFSGSGSGTDFTLTIDSPQPEDSATYYCQQSAHFPITFGQGTRLEIK | 123 | 78.8 | 122 | 59 | 67.2 | 96.8 | 84.4 | 92.5 | 134 | 128 | 70.1 | 1.5
